Measured values published in US8840891 (RSR, dated 2014).
Read-outs that look alike come from different tables or passages of the source.

What was measured:
Assay in all cases: cell-based or functional assay
[1] = target: human TSHR with Asp276 mutated to Alanine, expressed in CHO cells (human) (UniProt P16473)
[2] = target: human TSHR expressed on CHO cells (human) (UniProt P16473)
[3] = target: wild type human TSHR (human) (UniProt P16473)
[4] = target: TSHR with Lys58 mutated to Alanine (human) (UniProt P16473)
[5] = target: wild type human TSHR (human) (UniProt P16473); remark: listed apart in the source
[6] = target: wild type human TSHR (thyrotropin receptor) expressed on CHO cells (human) (UniProt P16473)
[7] = target: TSHR with Thr257 mutated to Alanine expressed on CHO cells (human) (UniProt P16473)
[8] = target: human TSHR with activating mutation A623I, on CHO cells (human) (UniProt P16473)
[9] = target: human TSHR with activating mutation S281I, on CHO cells (human) (UniProt P16473)

With 5C9 IgG (antibody) the Cyclic AMP produced; 5C9 0.01 µg/mL + pTSH 3 ng/mL; Experiment 1 (fmol/cell well) [1] was 26200, the Cyclic AMP produced; 5C9 0.01 µg/mL + pTSH 3 ng/mL; Experiment 2 (fmol/cell well) [1] was 21200 and the Cyclic AMP produced; 5C9 0.1 µg/mL + pTSH 3 ng/mL; Experiment 1 (fmol/cell well) [1] was 16900. For the same molecule, the Cyclic AMP produced; 5C9 0.1 µg/mL + pTSH 3 ng/mL; Experiment 2 (fmol/cell well) [1] was 7320, the Cyclic AMP produced; 5C9 1.0 µg/mL + pTSH 3 ng/mL; Experiment 1 (fmol/cell well) [1] was 4790 and the Cyclic AMP produced; 5C9 1.0 µg/mL + pTSH 3 ng/mL; Experiment 2 (fmol/cell well) [1] was 1510. For the same molecule, the Cyclic AMP produced; 5C9 10 µg/mL + pTSH 3 ng/mL; Experiment 1 (fmol/cell well) [1] was 1380, the Cyclic AMP produced; 5C9 10 µg/mL + pTSH 3 ng/mL; Experiment 2 (fmol/cell well) [1] was 1300 and the Cyclic AMP produced; 5C9 100 µg/mL + pTSH 3 ng/mL; Experiment 1 (fmol/cell well) [1] was 565. It also gave a Cyclic AMP produced; 5C9 100 µg/mL + pTSH 3 ng/mL; Experiment 2 (fmol/cell well) [1] of 288, a Cyclic AMP produced; 5C9 100 µg/mL only (no TSH); Experiment 1 (fmol/cell well) [1] of 602 and a Cyclic AMP produced; 5C9 100 µg/mL only (no TSH); Experiment 2 (fmol/cell well) [1] of 314. For the same molecule, the Mutated/wild type (%) of cyclic AMP; 5C9 0.01 µg/mL + pTSH 3 ng/mL; Experiment 1 [1] was 152%, the Mutated/wild type (%) of cyclic AMP; 5C9 0.01 µg/mL + pTSH 3 ng/mL; Experiment 2 [1] was 151% and the Mutated/wild type (%) of cyclic AMP; 5C9 0.1 µg/mL + pTSH 3 ng/mL; Experiment 1 [1] was 301%. For the same molecule, the Mutated/wild type (%) of cyclic AMP; 5C9 0.1 µg/mL + pTSH 3 ng/mL; Experiment 2 [1] was 164%, the Mutated/wild type (%) of cyclic AMP; 5C9 1.0 µg/mL + pTSH 3 ng/mL; Experiment 1 [1] was 631% and the Mutated/wild type (%) of cyclic AMP; 5C9 1.0 µg/mL + pTSH 3 ng/mL; Experiment 2 [1] was 230%. For the same molecule, the Mutated/wild type (%) of cyclic AMP; 5C9 10 µg/mL + pTSH 3 ng/mL; Experiment 1 [1] was 378%, the Mutated/wild type (%) of cyclic AMP; 5C9 10 µg/mL + pTSH 3 ng/mL; Experiment 2 [1] was 240% and the Mutated/wild type (%) of cyclic AMP; 5C9 100 µg/mL + pTSH 3 ng/mL; Experiment 1 [1] was 164%. It also gave a Mutated/wild type (%) of cyclic AMP; 5C9 100 µg/mL + pTSH 3 ng/mL; Experiment 2 [1] of 101%, a Mutated/wild type (%) of cyclic AMP; 5C9 100 µg/mL only (no TSH); Experiment 1 [1] of 201% and a Mutated/wild type (%) of cyclic AMP; 5C9 100 µg/mL only (no TSH); Experiment 2 [1] of 151%. For the same molecule, the Cyclic AMP, serum T1 + 0.001 µg/mL 5C9 IgG (fmol/cell well) [2] was 16900, the Cyclic AMP, serum T1 + 0.01 µg/mL 5C9 IgG (fmol/cell well) [2] was 20300 and the Cyclic AMP, serum T1 + 0.1 µg/mL 5C9 IgG (fmol/cell well) [2] was 16200. For the same molecule, the Cyclic AMP, serum T1 + 1 µg/mL 5C9 IgG (fmol/cell well) [2] was 2430, the Cyclic AMP, serum T1 + 10 µg/mL 5C9 IgG (fmol/cell well) [2] was 1120 and the Cyclic AMP, serum T3 + 0.001 µg/mL 5C9 IgG (fmol/cell well) [2] was 11600. The Cyclic AMP, serum T3 + 0.01 µg/mL 5C9 IgG (fmol/cell well) [2] was 13700, the Cyclic AMP, serum T3 + 0.1 µg/mL 5C9 IgG (fmol/cell well) [2] was 10400 and the Cyclic AMP, serum T3 + 1 µg/mL 5C9 IgG (fmol/cell well) [2] was 8080. For the same molecule, the Cyclic AMP, serum T3 + 10 µg/mL 5C9 IgG (fmol/cell well) [2] was 7810, the Cyclic AMP, serum T6 + 0.001 µg/mL 5C9 IgG (fmol/cell well) [2] was 11800 and the Cyclic AMP, serum T6 + 0.01 µg/mL 5C9 IgG (fmol/cell well) [2] was 13900. For the same molecule, the Cyclic AMP, serum T6 + 0.1 µg/mL 5C9 IgG (fmol/cell well) [2] was 9530, the Cyclic AMP, serum T6 + 1 µg/mL 5C9 IgG (fmol/cell well) [2] was 2370 and the Cyclic AMP, serum T6 + 10 µg/mL 5C9 IgG (fmol/cell well) [2] was 1030. It also gave a Cyclic AMP, serum T19 + 0.001 µg/mL 5C9 IgG (mean of duplicate) (fmol/cell well) [2] of 6470, a Cyclic AMP, serum T19 + 0.01 µg/mL 5C9 IgG (fmol/cell well) [2] of 5750 and a Cyclic AMP, serum T19 + 0.1 µg/mL 5C9 IgG (fmol/cell well) [2] of 375. For the same molecule, the Cyclic AMP, serum T19 + 1 µg/mL 5C9 IgG (fmol/cell well) [2] was 187, the Cyclic AMP, serum T19 + 10 µg/mL 5C9 IgG (fmol/cell well) [2] was 275 and the Cyclic AMP, serum T20 + 0.001 µg/mL 5C9 IgG (mean of duplicate) (fmol/cell well) [2] was 4860. It also gave a Cyclic AMP, serum T20 + 0.01 µg/mL 5C9 IgG (fmol/cell well) [2] of 6490, a Cyclic AMP, serum T20 + 0.1 µg/mL 5C9 IgG (fmol/cell well) [2] of 2180 and a cyclic AMP; 100 µg/mL 5C9 IgG only (fmol/cell well) [3] of 253. For the same molecule, the cyclic AMP; 5C9 0.01 µg/mL + TSH (fmol/cell well) [3] was 7340, the cyclic AMP; 5C9 0.1 µg/mL + TSH (fmol/cell well) [3] was 4640 and the cyclic AMP; 5C9 1.0 µg/mL + TSH (fmol/cell well) [3] was 918. It also gave a cyclic AMP; 5C9 10 µg/mL + TSH (fmol/cell well) [3] of 351, a cyclic AMP; 5C9 100 µg/mL + TSH (fmol/cell well) [3] of 528 and a cyclic AMP; 5C9 100 µg/mL only (fmol/cell well) [3] of 47. The cyclic AMP; T21 + 0.001 µg/mL 5C9 IgG (fmol/cell well) [3] was 11300, the cyclic AMP; T21 + 0.01 µg/mL 5C9 IgG (fmol/cell well) [3] was 10400 and the cyclic AMP; T21 + 0.1 µg/mL 5C9 IgG (fmol/cell well) [3] was 7480. The cyclic AMP; T21 + 1 µg/mL 5C9 IgG (fmol/cell well) [3] was 418, the cyclic AMP; T21 + 10 µg/mL 5C9 IgG (fmol/cell well) [3] was 303 and the cyclic AMP; T21 + 100 µg/mL 5C9 IgG (fmol/cell well) [3] was 210. The Mutated/wild type (%); 5C9 0.01 µg/mL + TSH [4] was 108%, the Mutated/wild type (%); 5C9 0.1 µg/mL + TSH [4] was 104% and the Mutated/wild type (%); 5C9 1.0 µg/mL + TSH [4] was 195%. It also gave a Mutated/wild type (%); 5C9 10 µg/mL + TSH [4] of 272%, a Mutated/wild type (%); 5C9 100 µg/mL + TSH [4] of 190% and a cyclic AMP; 5C9 0.01 µg/mL + TSH (fmol/cell well) [4] of 7910. The cyclic AMP; 5C9 0.1 µg/mL + TSH (fmol/cell well) [4] was 4820, the cyclic AMP; 5C9 1.0 µg/mL + TSH (fmol/cell well) [4] was 1790 and the cyclic AMP; 5C9 10 µg/mL + TSH (fmol/cell well) [4] was 955. It also gave a cyclic AMP; 5C9 100 µg/mL + TSH (fmol/cell well) [4] of 1000, a cyclic AMP; 5C9 100 µg/mL only (fmol/cell well) [4] of under 25 and a cyclic AMP; 5C9 0.01 µg/mL + TSH (fmol/cell well) [5] of 6620. It also gave a cyclic AMP; 5C9 0.1 µg/mL + TSH (fmol/cell well) [5] of 3790, a cyclic AMP; 5C9 1.0 µg/mL + TSH (fmol/cell well) [5] of 966 and a cyclic AMP; 5C9 10 µg/mL + TSH (fmol/cell well) [5] of 867. For the same molecule, the cyclic AMP; 5C9 100 µg/mL + TSH (fmol/cell well) [5] was 1010 and the cyclic AMP; 5C9 100 µg/mL only (fmol/cell well) [5] was 32.

B1: 5C9 IgG (human monoclonal autoantibody to the TSHR) (antibody, from another filing, V domains shown)
VH: EVQLVESGGGLIQPGGSLRLSCAASGFTVSSNYMSWVRQAPGKGLEWVSVTYSGGSTSYADSVKGRFTISRDNSKNTLYLQMNSLRAEDTAVYYCARGGRYCSSISCYARSGCDYWGQGTLVTVSS
VL: AIQMTQSPSSLSASVGDRVTITCRASQSISNYLNWYQQKPGKAPKLLIYAASSLQSGVPSRFSGSGSGTDFTLTISSLQPEDFATYYCQQSYSSPSTTFGQGTKLEIK
For B1, the Cyclic AMP produced; 5C9 0.01 µg/mL + TSH (fmol/cell well) [6] was 18700, the Cyclic AMP produced; 5C9 0.1 µg/mL + TSH (fmol/cell well) [6] was 6140 and the Cyclic AMP produced; 5C9 1.0 µg/mL + TSH (fmol/cell well) [6] was 1400. For the same molecule, the Cyclic AMP produced; 5C9 10 µg/mL + TSH (fmol/cell well) [6] was 638, the Cyclic AMP produced; 5C9 100 µg/mL + TSH (fmol/cell well) [6] was 591 and the Cyclic AMP produced; 5C9 100 µg/mL only (fmol/cell well) [6] was 566. The Cyclic AMP produced; 5C9 0.01 µg/mL + TSH (fmol/cell well) [7] was 21100, the Cyclic AMP produced; 5C9 0.1 µg/mL + TSH (fmol/cell well) [7] was 7940 and the Cyclic AMP produced; 5C9 1.0 µg/mL + TSH (fmol/cell well) [7] was 1590. For the same molecule, the Cyclic AMP produced; 5C9 10 µg/mL + TSH (fmol/cell well) [7] was 972, the Cyclic AMP produced; 5C9 100 µg/mL + TSH (fmol/cell well) [7] was 611 and the Cyclic AMP produced; 5C9 100 µg/mL only (fmol/cell well) [7] was 637. It also gave a Mutated/wild type (%); 5C9 0.01 µg/mL + TSH [7] of 113%, a Mutated/wild type (%); 5C9 0.1 µg/mL + TSH [7] of 129% and a Mutated/wild type (%); 5C9 1.0 µg/mL + TSH [7] of 114%. For the same molecule, the Mutated/wild type (%); 5C9 10 µg/mL + TSH [7] was 152%, the Mutated/wild type (%); 5C9 100 µg/mL + TSH [7] was 103% and the Mutated/wild type (%); 5C9 100 µg/mL only [7] was 111%. It also gave a basal cyclic AMP (buffer only 36.89); 5C9 IgG 0.001 µg/mL [8] of 26.5 pmol/mL, a basal cyclic AMP (buffer only 36.89); 5C9 IgG 0.01 µg/mL [8] of 27 pmol/mL and a basal cyclic AMP (buffer only 36.89); 5C9 IgG 0.1 µg/mL [8] of 19.8 pmol/mL. It also gave a basal cyclic AMP (buffer only 36.89); 5C9 IgG 1 µg/mL [8] of 16.4 pmol/mL and a % inhibition of basal cyclic AMP activity; 5C9 IgG 1 µg/mL [9] of 71%.
